{
  "source": "patent US5886163",
  "about": "“HIV-1 antigens, antibody compositions related thereto, and therapeutic and prophylactic uses thereof” (Progenics Pharmaceuticals, Inc., dated 1999)",
  "binders": {"B1": {"name": "HIV-1 gp120LAI (ligand)", "chain": "not shown"}},
  "molecular_target": "human CD4 on the membrane surface of DG44 #3 cells (human, UniProt P01730)",
  "assay": "FACS on DG44 #3 cells (CHO cells transfected with human CD4 cDNA)",
  "data": [
    {"binder": "B1", "values": [
      {"measurement": "binding result", "result": "binds"}
    ]}
  ]
}
